The record followed here is publication PMC6103272, “Genome-Wide Association Studies of Free Amino Acid Levels by Six Multi-Locus Models in Bread Wheat” (Frontiers in Plant Science, 2018).

In data set [1] the test system is N[C@@H](Cc1c[nH]c2ccccc12)C(=O)O. Nature of the data set: decarboxylase kinetics, Michaelis-Menten fit; product tryptamine by LC-MS. Particulars: 50 ppm PLP, 10-1,250 uM tryptophan, assay buffer of the standard assay 50 mM Tris-HCl pH 8.0, 37 C. The format is biochemical, Oryza sativa.
A further data set concerns T1, TraesCS1D01G052500.
T1 construct: gene TDC; full-length cDNA in pGEX-6p-1; E. coli BL21(DE3)
Described as above. The class given is biochemical, Triticum aestivum. Conditions: 50 ppm PLP; 10-1,250 uM tryptophan; assay buffer of the standard assay 50 mM Tris-HCl pH 8.0, 37 C.

Consider OsTDC1 (Oryza sativa Japonica Group), for which, in data set [1], the Km is 310 ± 30 µM, the kcat was 3.66 ± 0.27 s⁻¹ and the kcat/Km came to 11800 M⁻¹ s⁻¹.
With `N[C@@H](Cc1c[nH]c2ccccc12)C(=O)O` [tryptophan], the Km with TraesCS1D01G052500 turned out to be 100 ± 10 µM.

What is called Km is the concentration of substrate that gives half-maximal velocity. As a reminder, the kcat is the maximal rate divided by the concentration of active sites. As usually defined, the kcat/Km is the second-order rate constant that governs catalysis at low substrate concentration.
